What was measured:
[1] = target: E. coli FtsZ, purified (GTP-polymerized in the assays) (E. coli) (UniProt P0A9A6); experiment: co-sedimentation; co-sedimentation with GTP-polymerized FtsZ carried out similarly to Fig 2 panel A; data fitted with Hill model y = x^n/(Kd+x^n)
[2] = target: the molecule itself; experiment: 90° angle light scattering; FtsZ (12 μM) alone or with MBP-ABDOM (12 μM) or MBP in 50 mM PIPES pH 6.0, 1 mM EDTA, 5 mM MgCl2, 30 °C; polymerization induced by 1 mM GTP

Molecule | Kd [1] [µM] | binding result [2]
MBP-ABDOM (ABDOM of MscS with N-terminally fused maltose binding protein) (from UniProt P0C0S1 175-265) (domain or fragment) | 5.3 | 
MBP-ABDOM-K258A/R259A (from UniProt P0C0S1 175-265) (domain or fragment) | 14.6 | 
E. coli FtsZ, purified (GTP-polymerized in the assays) (natural protein, UniProt P0A9A6 1-383, looked up, cell division protein FtsZ, E. coli, from pET11-ftsZ (gift of H. P. Erickson); also called polymerized FtsZ; assembled FtsZ; source: E. coli BL21(DE3) carrying pET11-FtsZ, purified by GTP-induced precipitation (four times)) MFEPMELTNDAVIKVIGVGGGGGNAVEHMVRERIEGVEFFAVNTDAQALRKTAVGQTIQIGSGITKGLGAGANPEVGRNAADEDRDALRAALEGADMVFIAAGMGGGTGTGAAPVVAEVAKDLGILTVAVVTKPFNFEGKKRMAFAEQGITELSKHVDSLITIPNDKLLKVLGRGISLLDAFGAANDVLKGAVQGIAELITRPGLMNVDFADVRTVMSEMGYAMMGSGVASGEDRAEEAAEMAISSPLLEDIDLSGARGVLVNITAGFDLRLDEFETVGNTIRAFASDNATVVIGTSLDPDMNDELRVTVVATGIGMDKRPEITLVTNKQVQQPVMDRYQQHGMAPLTQEQKPVAKVVNDNAPQTAKEPDYLDIPAFLRKQAD |  | binds
